The experiment deals with HA ectodomain trimer (UniProt Q289M7). As to the kind of experiment: Octet. On the technique in general: Biolayer interferometry detects binding as a change in optical thickness at a sensor tip.

F10: the equilibrium dissociation constant (Kd) (commonly the constant that tells how readily two partners part at equilibrium) (scFv) is 0.063 nM.

Consider CR6261, for which the Kd (Fab) amounted to 0.39 nM.

The record behind these values is patent publication US20240285749A1.
